Data as given in patent US9193963B2, “Mutant endoglucanase” (Toray Industries, Inc., priority 2011, dated 2015).
Positions count from the first letter of the chain named.

B1: EGPh Wild-type: Pyrococcus horikoshii-derived endoglucanase, SEQ ID NO: 1, parent endoglucanase (protein)
chain: MEGNTILKIVLICTILAGLFGQVVPVYAENTTYQTPTGIYYEVRGDTIYMINVTSGEETPIHLFGVNWFGFETPNHVVHGLWKRNWEDMLLQIKSLGFNAIRLPFCTESVKPGTQPIGIDYSKNPDLRGLDSLQIMEKIIKKAGDLGIFVLLDYHRIGCTHIEPLWYTEDFSEEDFINTWIEVAKRFGKYWNVIGADLKNEPHSVTSPPAAYTDGTGATWGMGNPATDWNLAAERIGKAILKVAPHWLIFVEGTQFTNPKTDSSYKWGYNAWWGGNLMAVKDYPVNLPRNKLVYSPHVYGPDVYNQPYFGPAKGFPDNLPDIWYHHFGYVKLELGYSVVIGEFGGKYGHGGDPRDVIWQNKLVDWMIENKFCDFFYWSWNPDSGDTGGILQDDWTTIWEDKYNNLKRLMDSCSKSSSSTQSVIRSTTPTKSNTSKKICGPAILIILAVFSLLLRRAPR
modifications: Pyrococcus horikoshii EGPh
B2: EGPh Mutant: mutant EGPh, SEQ ID NO: 2; 273rd tryptophan substituted with alanine (protein)
chain: B1 chain with W273A
modifications: Pyrococcus horikoshii EGPh W273A
notes: 273rd tryptophan substituted with alanine
B3: EGIa2 Wild-type: Ignisphaera aggregans-derived endoglucanase 2, SEQ ID NO: 13, parent endoglucanase (protein)
chain: MYREKSCGSTIMDVYYRARGTEIYIERKGVEKPLYIFGINWAGFEWRGRVVGGLHVRNWVEILQQIKSLGFNAIRIPFCAESVKPGVFPAPRTINYALNRDLIGLDSISIMEKIIAKAAELELYILLCFHNISCLIMEPLWYTPLFSEQQFIDTWIRVAKRFSRYWNVIGAELYNNPHGRLPPSYYYESGECATWGMGNPKTDWNLAAERIGRAVLEVAPHWLIIVKGTQLTNPRSDNVPLYPEATYWGENLRAVRDYPVNLPRDKLVYGVDIYGPDVYYMPYFNDPNIFPDKLYLIWDQNWGYVKKELGYPLIIAEFGGLYGRGDPRDVIWHQKLVEYMISNNICHWFYNALNPDNPSTAGLLENDWRTVREDKMALLRRAMDYCRERYGNI
modifications: Ignisphaera aggregans EGIa2
B4: EGIa1 Wild-type: Ignisphaera aggregans-derived endoglucanase1, SEQ ID NO: 7, parent endoglucanase (protein)
chain: MNFFVKNGEIYKLDGATGKPKIIYLFGVNWFGFETRDYVVHGLWARNWVDMLQQIKSLGFNAIRLPFCTYSVQEGTMPNSNAINYNINPDLQGLTSIEIMEKIVAKANELGIYILLDYHRLGCDQIEPLWYSDQVSEQQFIDTWVSVAKRFAKYPNVIGADIRNEPWGATWGTDDPATDWRLAVEKVAPKILEVAPHWLIFVEGTYKTRPDIDERSWYPYYSYYVFWGENLRAVRYYPVRLPYEKIVYSPHTYGPDVFRQPYFDDPIFPENMRSIWMERFGYVKTELGYALVVGEFGGRYGHGGDPRDIIWQIKFVDWLIENRICNFFYWSWNANSGDTGGILKDDWTNIWEDKYQNLKRLMDYCSSIN
modifications: Ignisphaera aggregans EGIa1
B5: EGIa1 Mutant: mutant EGIa1, SEQ ID NO: 8; residue corresponding to 273rd tryptophan substituted with alanine (protein)
chain: B4 chain with W227A
modifications: Ignisphaera aggregans EGIa1 W227A
notes: residue corresponding to 273rd tryptophan substituted with alanine

Assay: Inhibition experiment with ferulic acid: degradation of phosphoric acid swollen cellulose
Assay type: biochemical
Settings: ferulic acid 0 mM; enzyme 0.5 μM, 1 hour, 50° C.; parent at 0 mM = 100%

In order of rising “Relative activity to degrade phosphoric acid swollen cellulose” value:
1. B1  100%
2. B2  100%
3. B3  100%
4. B4  100%
5. B5  100%

Same assay, conditions: ferulic acid 5 mM; enzyme 0.5 μM, 1 hour, 50° C.; parent at 0 mM = 100%

In order of rising “Relative activity to degrade phosphoric acid swollen cellulose” value:
1. B4  55%
2. B1  60%
3. B3  60%
4. B2  100%
5. B5  100%

Same assay, conditions: ferulic acid 10 mM; enzyme 0.5 μM, 1 hour, 50° C.; parent at 0 mM = 100%

In order of falling “Relative activity to degrade phosphoric acid swollen cellulose” value:
1. B2  100%
2. B5  100%
3. B3  60%
4. B1  50%
5. B4  50%

Same assay, conditions: ferulic acid 15 mM; enzyme 0.5 μM, 1 hour, 50° C.; parent at 0 mM = 100%

In order of falling “Relative activity to degrade phosphoric acid swollen cellulose” value:
1. B2  95%
2. B5  95%
3. B3  55%
4. B1  50%
5. B4  50%

Assay: Saccharification of lignocellulose 3 with Celluclast and endoglucanase
Assay type: biochemical, Rice straw
Settings: 5 wt % Lignocellulose 3, pH 5.2, 50° C., 24 hours; 1.0 mg/mL cellulase + 0.1 mg/mL endoglucanase
Procedure, shortened: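 Hydrothermally pretreated rice straw (180° C., 20 min) at 5 wt % in 50 mM acetate buffer pH 5.2 digested at 50° C. for 24 h with Celluclast 1.0 mg/mL plus mutant or wild-type endoglucanase 0.1 mg/mL. Released glucose measured over time.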

In order of rising “Concentration of glucose generated, Celluclast + Wild-type” value (from here on “Concentration … Celluclast + Wild-type”):
1. B3  11 g/L
2. B4  11 g/L
3. B1  12 g/L

In order of falling “Concentration of glucose generated, Celluclast + Mutant” value (shortened to “Concentration … Celluclast + Mutant”):
1. B2  16 g/L
2. B5  15 g/L

Assay: Saccharification of lignocellulose 2 with Trichoderma reesei culture solution and endoglucanase
Assay type: biochemical, Rice straw
Settings: Lignocellulose 2, 24 hours; cellulase 1.0 mg/mL + endoglucanase 0.1 mg/mL + β-glucosidase (Novozyme 188) 0.01 mg/mL
Procedure, shortened: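 Dilute-sulfuric-acid-autoclaved rice straw (pH ~5) suspended at 5 wt % in 50 mM acetate pH 5.2, hydrolysed 24 h at 50 °C. Enzymes: T. reesei culture solution 1.0 mg/mL, mutant or wild-type endoglucanase 0.1 mg/mL, β-glucosidase 0.01 mg/mL. Glucose released was measured.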

In order of rising “Concentration of glucose generated, Culture solution + Wild-type” value (“Concentration … Culture solution + Wild-type” for short):
1. B1  8 g/L
2. B3  8 g/L
3. B4  9 g/L

In order of falling “Concentration of glucose generated, Culture solution + Mutant” value (“Concentration … Culture solution + Mutant” for short):
1. B2  12 g/L
2. B5  12 g/L

Assay: Saccharification of lignocellulose 1 with Celluclast and endoglucanase
Assay type: biochemical, Rice straw
Settings: 5 wt % Lignocellulose 1, pH 5.2, 50° C., 24 hours; 1.0 mg/mL cellulase + 0.1 mg/mL endoglucanase
Procedure, shortened: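 Rice straw pretreated with liquid ammonia (15 min room temperature, then 1 h at 150° C), suspended at 5 wt % in 50 mM acetate pH5.2. Hydrolysed at 50° C for 24 h with 1.0 mg/mL Trichoderma reesei cellulase plus 0.1 mg/mL mutant or wild-type endoglucanase; glucose measured.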

In order of rising “Concentration … Celluclast + Wild-type” value:
1. B3  11 g/L
2. B4  11 g/L
3. B1  12 g/L

In order of falling “Concentration … Celluclast + Mutant” value:
1. B2  16 g/L
2. B5  15 g/L

Assay: Inhibition experiment with vanillin: degradation of phosphoric acid swollen cellulose
Assay type: biochemical
Settings: vanillin 0 mM; enzyme 0.5 μM, 1 hour, 50° C.; parent at 0 mM = 100%

In order of falling “Relative activity to degrade phosphoric acid swollen cellulose” value:
1. B1  100%
2. B2  100%
3. B3  100%
4. B4  100%
5. B5  100%

Same assay, conditions: vanillin 5 mM; enzyme 0.5 μM, 1 hour, 50° C.; parent at 0 mM = 100%

In order of falling “Relative activity to degrade phosphoric acid swollen cellulose” value:
1. B5  100%
2. B2  95%
3. B4  60%
4. B3  50%
5. B1  40%

Same assay, conditions: vanillin 10 mM; enzyme 0.5 μM, 1 hour, 50° C.; parent at 0 mM = 100%

In order of falling “Relative activity to degrade phosphoric acid swollen cellulose” value:
1. B5  100%
2. B2  90%
3. B4  55%
4. B3  45%
5. B1  40%

Same assay, conditions: vanillin 15 mM; enzyme 0.5 μM, 1 hour, 50° C.; parent at 0 mM = 100%

In order of falling “Relative activity to degrade phosphoric acid swollen cellulose” value:
1. B5  95%
2. B2  90%
3. B1  40%
4. B3  40%
5. B4  40%

Assay: Saccharification of lignocellulose 2 with Celluclast and endoglucanase
Assay type: biochemical, Rice straw
Settings: 5 wt % Lignocellulose 2, pH 5.2, 50° C., 24 hours; 1.0 mg/mL cellulase + 0.1 mg/mL endoglucanase
Procedure, shortened: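 Dilute-sulfuric-acid-pretreated rice straw (10 wt% solids, pH ~5) suspended at 5 wt% in 50 mM acetate buffer pH 5.2 was digested 24 h at 50 °C with 1.0 mg/mL Trichoderma reesei Celluclast plus 0.1 mg/mL mutant or wild-type endoglucanase; glucose released was measured.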

In order of rising “Concentration … Celluclast + Wild-type” value:
1. B1  11 g/L
2. B3  11 g/L
3. B4  12 g/L

In order of rising “Concentration … Celluclast + Mutant” value:
1. B2  15 g/L
2. B5  15 g/L

Assay: Saccharification of lignocellulose 3 with Trichoderma reesei culture solution and endoglucanase
Assay type: biochemical, Rice straw
Settings: Lignocellulose 3, 24 hours; cellulase 1.0 mg/mL + endoglucanase 0.1 mg/mL + β-glucosidase (Novozyme 188) 0.01 mg/mL
Procedure, shortened: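 Hydrothermally treated rice straw (180 °C, 20 min, 10 MPa; solid fraction) suspended at 5 wt % in 50 mM acetate buffer pH 5.2, hydrolysed 24 h at 50 °C. Enzymes: T. reesei culture-solution cellulase 1.0 mg/mL, mutant or wild-type endoglucanase 0.1 mg/mL, β-glucosidase 0.01 mg/mL; glucose generated measured.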

In order of rising “Concentration … Culture solution + Wild-type” value:
1. B3  8 g/L
2. B4  8 g/L
3. B1  10 g/L

In order of falling “Concentration … Culture solution + Mutant” value:
1. B2  13 g/L
2. B5  12 g/L

Assay: Activity to degrade phosphoric acid swollen cellulose
Assay type: biochemical
Settings: 1% phosphoric acid swollen cellulose, pH 5.2, enzyme 0.5 μM, 1 hour, 50° C.; glucose generated by each parent endoglucanase = 100%
Procedure, shortened: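 Enzyme added to phosphoric acid swollen cellulose in 50 mM acetate buffer, pH 5.2; 1 h reaction at 30–85 °C, stopped by pH change if needed. Glucose released measured by glucose kit; activity expressed relative to parent endoglucanase set at 100%.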

In order of rising Relative activity:
1. B1  100%
2. B2  100%
3. B3  100%
4. B4  100%
5. B5  100%

Same assay, conditions: Comparative Example 2, technique similar to Example 3; parent endoglucanase = 100%

Work on B1 yielded a Relative activity of 100%.

Assay: Saccharification of lignocellulose 1 with Trichoderma reesei culture solution and endoglucanase
Assay type: biochemical, Rice straw
Settings: Lignocellulose 1, 24 hours; cellulase 1.0 mg/mL + endoglucanase 0.1 mg/mL + β-glucosidase (Novozyme 188) 0.01 mg/mL
Procedure, shortened: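 Substrate was liquid-ammonia-treated rice straw (1 h, 150 °C), suspended at 5 wt % in 50 mM acetate buffer pH 5.2 and hydrolysed for 24 h at 50 °C. Enzymes: T. reesei culture solution 1.0 mg/mL, mutant or wild-type endoglucanase 0.1 mg/mL, β-glucosidase 0.01 mg/mL. Glucose released was measured.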

In order of rising “Concentration … Culture solution + Wild-type” value:
1. B3  8 g/L
2. B4  8 g/L
3. B1  9 g/L

In order of rising “Concentration … Culture solution + Mutant” value:
1. B5  12 g/L
2. B2  13 g/L
